{"source": "paper PMC5618221", "key": {"[1]": {"target": "recombinant Hbl B (haemolysin BL binding component B) (Bacillus cereus strain F837/76) (UniProt P80172)", "test": "SPR; BIACORE 3000; rHbl B amine-coupled to CM5 chip (500 RU); rHbl L2 injected 31.2 nM to 4 uM at 30 uL/min, 20 °C, in PBS, 1 mM DTT, 0.005% Tween 20; KD from steady state, mean of four experiments"}, "[2]": {"target": "recombinant Hbl L1 (haemolysin BL component L1) (Bacillus cereus strain F837/76)", "test": "SPR; BIACORE 3000; rHbl L1 amine-coupled to CM5 chip (560 RU); rHbl L2 or B injected 7.8 nM to 2 uM at 30 uL/min, 20 °C, in PBS, 1 mM DTT, 0.005% Tween 20; KD from steady state, one-site model, mean of three (L2) or four (B) experiments; L1 + B did not reach full saturation at lower concentrations, KD likely slightly underestimated"}, "[3]": {"target": "Hbl B in culture supernatant of B. cereus strain MHI 1532 (Bacillus cereus strain MHI 1532 (endogenous in culture supernatant)) (UniProt P80172)", "test": "co-IP"}}}
{"substance": "recombinant Hbl L2 (haemolysin BL component L2) (natural protein)", "values": [{"measurement": "Kd", "setting": "[1]", "value": 3400, "unit": "nM"}, {"measurement": "Kd", "setting": "[2]", "value": 150, "unit": "nM"}]}
{"substance": "Hbl L2 in culture supernatant of B. cereus strain MHI 1532 (natural protein)", "values": [{"measurement": "percent in elution fraction", "setting": "[3]", "value": 29, "unit": "%"}, {"measurement": "percent in sample flow-through", "setting": "[3]", "value": 51, "unit": "%"}, {"measurement": "percent in wash fraction", "setting": "[3]", "value": 20, "unit": "%"}]}
{"substance": "recombinant Hbl B (haemolysin BL binding component B) (from UniProt P80172 32-375) (natural protein)", "values": [{"measurement": "Kd", "setting": "[2]", "value": 470, "unit": "nM"}]}
{"substance": "Hbl L1 in culture supernatant of B. cereus strain MHI 1532 (natural protein)", "values": [{"measurement": "percent in elution fraction", "setting": "[3]", "value": 180, "unit": "%"}, {"measurement": "percent in sample flow-through", "setting": "[3]", "value": "< 5", "unit": "%"}, {"measurement": "percent in wash fraction", "setting": "[3]", "value": "< 5", "unit": "%"}]}
